Test results taken from patent US5985278A (Merck Patent Gesellschaft mit Beschrankter Haftung, priority 1994, dated 1999).
Values joined by “and” are separate entries in the source; they are usually repeats but may differ in a detail not shown here. Identical values can stand only once. Like-named read-outs stand apart in the source and are kept apart here.

Columns and labels:
[1] = target: purified human placental integrin αvβ3 (human) (UniProt P06756); test: pre-block competition: ligand pre-bound to αvβ3-coated plates, labelled 17E6 as probe
[2] = tested on: human melanoma and carcinoma cell lines; test: αV-mediated cell attachment to vitronectin, cell line panel; type: cell-based; details: read-out: IC50 in cellular assay
Experimental: (§1) Cell Attachment Assays were as previously described (Goodman et al., 1991), using hexosaminidase activity (Landegren, 1984) to detect attached cells. Dilutions and cell suspensions were in attachment buffer (RPMI, 1% BSA, 25 mM HEPES; pH 7.4). Matrix proteins were coated onto 96- or 48-well plates, the wells were blocked with BSA and serially diluted MAbs were added to the wells followed by cells (2.5×10^4 -5×10^4). After 1 h at 37° C., non-adherent cells were washed away and attached cells counted against a standard curve run in parallel. Inhibition of attachment was calculated by using wells with no MAbs as reference. Typically, over 70% of added cells had attached to vitronectin at 1 h. Cell attachment to wells coated with BSA alone was routinely less than 5% of specifically attached cells.

[3] = target: purified human placental integrin αvβ3 (human) (UniProt P06756); test: isolated receptor assay, vitronectin on αvβ3-coated plates
[4] = target: T1, integrin αvβ3 on human cells (human, UniProt P06756)
[5] = target: purified human placental integrin αvβ3 (human) (UniProt P06756); test: ELISA on isolated αvβ3
[6] = target: T1, integrin αvβ3 on human cells; test: cell-based or functional assay
[7] = target: T2, integrin αvβ5 on human cells (human, UniProt P06756); test: cell-based or functional assay
[8] = target: integrin αvβ1 on V+B2 cells
[9] = tested on: purified αvβ3; test: ELISA on purified αvβ3; type: binding, human; details: FIG. 10
[10] = tested on: αvβ5 (UCLA-P3 cells); test: Cell attachment to vitronectin mediated by αvβ5 (UCLA-P3 cells); type: cell-based, human; details: vitronectin, FIG. 11
Experimental: as §1

[11] = tested on: αvβ1 (V+B2 cells); test: Cell attachment to vitronectin mediated by αvβ1 (V+B2 cells); type: cell-based; details: FIG. 11
Experimental: as §1

[12] = tested on: αvβ3 (WM164 and M21 cells); test: Cell attachment to vitronectin mediated by αvβ3 (WM164 and M21 cells); type: cell-based, human; details: FIG. 11
Experimental: as §1

[13] = target: T2, integrin αvβ5 on human cells; set-up: IC50, M21 cell attachment to vitronectin: unit not given beside the values
[14] = target: human αv-integrin chain on the cell surface (human) (UniProt P06756); set-up: IC50, M21 cell attachment to vitronectin: unit not given beside the values
[15] = target: human αv-integrin chain on the cell surface (human) (UniProt P06756)
[16] = target: human αv-integrin chain on the cell surface (human) (UniProt P06756); remark: listed apart in the source
[17] = target: integrin αIIbβ3 on M21-L-IIb cells (human, UniProt P08514); test: CELISA, fixed M21-L-IIb cells
[18] = target: integrin β3 chain, intracellular pool of M21-L cells (human, UniProt P05106); test: flow cytometry, permeabilized M21-L cells
[19] = target: purified human placental integrin αvβ3 (human) (UniProt P06756); test: direct competition with biotinylated vitronectin on αvβ3-coated plates, 70 nM antibody
[20] = target: human αv-integrin chain on the cell surface (human, UniProt P06756); test: cell-based or functional assay

fibrinogen (ligand)
% block of labelled 17E6 binding [1]: < 10%

CC(C)[C@@H]1NC(=O)[C@@H](Cc2ccccc2)NC(=O)[C@H](CC(=O)O)NC(=O)CNC(=O)[C@H](CCCNC(=N)N)NC1=O [cRGDfV, cyclic peptide: Arg-Gly-Asp-DPhe-Val, reference compound]
IC50 [2]: ~1000 nM

vitronectin (from UniProt P04004) (ligand)
saturation concentration [3]: 5 µg ml^-1 and 10 nM
% block of labelled 17E6 binding [1]: < 10%

LM609 (antibody)
IC50, WM793 cell attachment to vitronectin [4]: 0.6 µg/mL

B1: 17E6 F(ab')2 fragment (other)
VH: QVQLQQSGAELAEPGASVKMSCKASGYTFSSFWMHWVKQRPGQGLEWIGYINPRSGYTECNEIFRDKATMTADTSSSTAYMQLSGLTSEDSAVYYCASFLGRGAMDYWGQGTSVTVSS
VL: DIQMTQTTSSLSASLGDRVIISCRASQDISNYLSWYQQKPDGTVKLLIFYTSKLHSGVPSRFSGSGSGTDYSLTISNLDQEDIATYFCQQGNTFPYTFGGGTKVEMR
EC50 [5]: 0.001 µg/mL
IC50, WM164 and M21 cell attachment to vitronectin [6]: ~0.5 µg ml^-1 and ~3 nM
IC50, UCLA-P3 cell attachment to vitronectin [7]: ~0.1 µg ml^-1 and ~700 pM

B2: 17E6 F(ab') fragment (Fab, V domains shown)
VH: B1 VH
VL: B1 VL
fold activity in cell attachment to vitronectin, against αvβ3 [8]: 10000 fold
EC50 [5]: 0.001 µg/mL
IC50, WM164 and M21 cell attachment to vitronectin [6]: > 50 µg ml^-1 and > 400 nM
fold activity in cell attachment to vitronectin, against αvβ3 [7]: 10000 fold

B3: F(ab')2: F(ab')2 fragment of 17E6 prepared by pepsin cleavage (antibody, V domains shown)
VH: B1 VH
VL: B1 VL
50% saturation in ELISA on isolated αvβ3 [9]: ~ 1 ng ml^-1
IC50, cell attachment mediated by αvβ5 (UCLA-P3 cells) [10]: ~ 0.1 μg ml^-1
IC50, cell attachment mediated by αvβ1 (V+B2 cells) [11]: ~ 0.1 μg ml^-1
IC50, αvβ3 attachment (WM164 and M21 cells) [12]: ~ 0.5 μg ml^-1

B4: monoclonal antibody 17E6 (antibody, V domains shown)
VH: B1 VH
VL: B1 VL
IC50, UCLAP3 cell attachment to vitronectin [13]: 0.03 µg/mL
IC50, M21 cell attachment to vitronectin [14]: 0.1
M21 cell attachment to vitronectin, purified antibody [14]: 85%
IC50, αV-mediated cell attachment [15]: 0.3 to 1 nM
IC50, cellular attachment assay [16]: 0.1 µg/mL
IC50, WM164 and M21 cell attachment to vitronectin [6]: ~0.5 µg ml^-1 and ~3 nM
IC50, WM793 cell attachment to vitronectin [6]: ~0.06 µg/mL
binding result [17]: no binding
binding result [18]: no binding
% inhibition of vitronectin binding [19]: < 30%

GRGDSPK [linear peptide GRGDSPK]
IC50, αV-mediated cell attachment [20]: ~5000 nM
